Laboratory results taken from patent US20160046672A1, “STAPLING eIF4E INTERACTING PEPTIDES” (AGENCY FOR SCIENCE, TECHNOLOGY AND RESEARCH, priority 2013, published 2016).
Positions of bridges follow the written chain, without caps; N, C: chain ends. Non-standard residues stand in square brackets, D forms with d. R5 = C=CCCC[C@@](C)(N)C(=O)O; S5 = C=CCCC[C@](C)(N)C(=O)O; Aib = CC(C)(N)C(=O)O

Experiments:
[1] = circular dichroism; conditions: 5 mM sodium phosphate; pH 7.0; ns °C; 0.5 or 2 mg/mL
[2] = biological target: T1, eIF4E (Homo sapiens, UniProt P06730); assay: eIF4E affinity (SPR/FP, method not named); format: binding
T1 construct: made in house
T1 sequence (P06730 whole entry): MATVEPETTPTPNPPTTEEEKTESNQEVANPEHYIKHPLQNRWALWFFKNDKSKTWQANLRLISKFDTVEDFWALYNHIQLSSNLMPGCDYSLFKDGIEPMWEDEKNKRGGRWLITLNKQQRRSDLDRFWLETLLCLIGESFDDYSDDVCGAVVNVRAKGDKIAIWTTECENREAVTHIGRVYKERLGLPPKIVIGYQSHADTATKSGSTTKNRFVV
Description: Apparent Kd values were determined for a variety of molecules via competitive anisotropy anisotropy experiments. Titrations were carried out with the concentrations eIF4E held constant at 200 nM, respectively and the labeled peptide at 50 nM. The competing molecules were then titrated against complex of the FAM labeled peptide and protein. Apparent Kd values were determined by fitting the experimental data to the equations shown below: […]
(§1) Six buffer blanks were first injected to equilibrate the instrument fully and then a solvent correction curve was performed followed by a further two blank injections. […] Using a flow rate of 50 μl/min, compounds were injected for 60 s and dissociation was monitored for 180 s. The data collection rate was 10 Hz. Kds were determined using the BiaEvaluation software (Biacore) and calculated kinetically from the dissociation and association phase data for each of the peptides. The kinetic data were fitted to 1:1 binding models. Each individual peptide Kd was determined from three separate titrations. Within each titration at least two concentration points were duplicated to ensure stability and robustness of the chip surface.

[3] = system: MDA-MB-231 cells; assay: Normalized luminescence / cell viability, FIG. 12A; format: cell-based; conditions: MDA-MB-231, increasing peptide concentration
Description: (§2) FIG. 12A is a dot plot representing normalized luminescence in MDA-MB-468 and MDA-MB-231 cells over increased concentration of staple peptides. MDA-MB-468 and MDA-MB-231 cells were lysed and a recombinant luciferase protein was added to the lysed cells.

[4] = system: MDA-MB-468 cells; assay: Normalized luminescence / cell viability, FIG. 12A; format: cell-based; conditions: MDA-MB-468, increasing peptide concentration
Description: as §2

[5] = system: MDA-MB-231 cells; assay: Western Blot of protein levels in treated cells, FIG. 12B; format: cell-based; conditions: MDA-MB-231, absence or presence of 10% Fetal calf serum, 1% DMSO
Description: Actin protein is a loading control to indicate that the same amount of proteins was loaded into each well.

[6] = biological target: T1, eIF4E; assay: Competitive fluorescence anisotropy (FP) assay against FAM labeled tracer peptide; format: binding
Description: (§3) Apparent Kd values were determined for a variety of molecules via competitive anisotropy anisotropy experiments. Titrations were carried out with the concentrations eIF4E held constant at 200 nM, respectively and the labeled peptide at 50 nM. […] Apparent Kd values were determined by fitting the experimental data to the equations shown below:
[L]st and [L]t denote labeled ligand and total unlabeled ligand input concentrations, respectively. Kd2 is the dissociation constant of the interaction between the unlabelled ligand and the protein. […] Readings were carried out with an Envision Multilabel Reader (PerkinElmer). […] All titrations were carried out in triplicate. Curve-fitting was carried out using Prism 4.0 (GraphPad).

[7] = Circular dichroism, percent α-helicity in solution; format: physicochemical; conditions: CD, 5 mM sodium phosphate buffer pH 7.0
Description: CD was measured on a JASCO J-810 spectropolarimeter, and spectra were either recorded with a quartz cuvette (Helmer) with a pathlength of 0.01 cm or 0.1 cm in 5 mM sodium phosphate buffer (pH 7.0). FUV CD spectra were recorded from 260 nm to 200 nm at a peptide concentration of either 2 mg/ml or 0.5 mg/ml, respectively. The CD signal was converted into mean residue ellipticity in units of degree·cm^2·dmol^−1·residue^−1. CD spectra were recorded at a data pitch of 0.2 nm at 50 nm min^−1, a response time of 2 s, and a bandwidth of […]. Once converted to mean residue ellipticity, percent α-helicity can be calculated with equation (1) and (2): […]

[8] = biological target: T2, human eukaryotic translation initiation factor 4E (eIF4E), full-length (human, UniProt P06730 2-217); assay: SPR, Biacore T100, eIF4E immobilised on CM5, peptide as analyte, kinetic 1:1 fit; SPR (first value of the SPR/FP cell); weak, about 12 uM
T2 construct: mature; For SPR it was amine-coupled to a CM5 chip with m7GTP present in a 2:1 ratio. 'mature' is used here for full length; also called full length eIF4E
T2 sequence (P06730 2-217): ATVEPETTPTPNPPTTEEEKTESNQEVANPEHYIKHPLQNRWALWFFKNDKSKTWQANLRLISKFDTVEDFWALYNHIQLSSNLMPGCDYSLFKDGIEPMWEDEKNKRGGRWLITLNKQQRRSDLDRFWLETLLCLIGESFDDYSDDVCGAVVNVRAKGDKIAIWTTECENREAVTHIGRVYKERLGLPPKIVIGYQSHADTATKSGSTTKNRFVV
Description: (§4) For stock peptide solutions, the compounds were dissolved in 100% DMSO to a concentration of 10 mM; further dilutions of the peptide stock solutions into DMSO and/or running buffer were performed immediately prior to analysis. Running buffer consisted of 10 mM Hepes pH 7.6, 0.15M NaCl, 1 mM DTT and 0.1% Tween20. Stock/DMSO diluted peptide solutions were diluted into 1.03× running buffer to make a peptide solution with 3% DMSO final concentration. […] Surface Plasmon resonance experiments were performed on a Biacore T100 machine.
(§5) eIF4E was immobilized on a CM5 sensor chip. The CM5 chip was conditioned with a 6 s injection of 100 mM HCL, followed by a 6 s injection of 0.1% SDS and completed with a 6 s injection of 50 mM NaOH at a flow rate of 100 μl/min. […]
as §1, with “The data collection rate was 10 Hz.” left out, “The kinetic data were fitted to 1:1 binding models.” left out, “titrations.” for “titrations. Within each titration at least two concentration points were duplicated to ensure stability and robustness of the chip surface.”

[9] = biological target: T2, human eukaryotic translation initiation …; assay: Kd ratio from Table 2 (SPR/FP; which assay is not said)
[10] = biological target: T2, human eukaryotic translation initiation …; assay: SPR, Biacore T100, eIF4E immobilised on CM5, peptide as analyte, kinetic 1:1 fit
Description: as §4
eIF4E was immobilized on a CM5 sensor chip. The CM5 chip was conditioned with a 6 s injection of 100 mM HCL, followed by a 6 s injection of 0.1% SDS and completed with a 6 s injection of 50 mM NaOH at a flow rate of 100 μl/min. […] Purified eIF4E was diluted with 10 mM sodium acetate buffer (pH 5.0) to a final concentration of 0.5 μM with m⁷ GTP present in a 2:1 ratio in order to stabilize eIF4E. The amount of eIF4E immobilized on the activated surface was controlled by altering the contact time of the protein solution and was approximately 1000 RU. After the immobilization of the protein, a 7-min injection (at 10 μl min⁻¹) of 1 M ethanolamine (pH 8.5) was used to quench excess active succinimide ester groups.
as §1, with “titrations.” for “titrations. Within each titration at least two concentration points were duplicated to ensure stability and robustness of the chip surface.”

[11] = biological target: T2, human eukaryotic translation initiation …; assay: competitive fluorescence anisotropy (FP), displacement of FAM tracer from eIF4E, apparent Kd
Description: as §3, with “below: […]” for “below:”

[12] = biological target: T2, human eukaryotic translation initiation …; assay: SPR, Biacore T100, eIF4E immobilised on CM5, peptide as analyte, kinetic 1:1 fit; SPR (first value of the SPR/FP cell); weak, about 9 uM
Description: as §4, §5
as §1, with “The data collection rate was 10 Hz.” left out, “The kinetic data were fitted to 1:1 binding models.” left out, “titrations.” for “titrations. Within each titration at least two concentration points were duplicated to ensure stability and robustness of the chip surface.”

[13] = biological target: T2, human eukaryotic translation initiation …; assay: Kd ratio from Table 2 (SPR/FP; which assay is not said; the reference is the linear template eIF4G^D5S)

For CC(=O)N[C@@H](CCCCN)C(=O)N[C@@H](CCCCN)C(=O)N[C@@H](CCCNC(=N)N)C(=O)N[C@@H](Cc1ccc(O)cc1)C(=O)N[C@@H](CO)C(=O)N[C@@H](CCCNC(=N)N)C(=O)N[C@@H](CCC(=O)O)C(=O)N[C@]1(C)CCCC=CCCC[C@@](C)(C(=O)N[C@@H](Cc2ccccc2)C(N)=O)NC(=O)[C@H](CC(C)C)NC(=O)[C@H](CC(C)C)NC1=O [sTIP-03, KKRYSRE*LL*F], the helicity [1] was 45%, the “fold decrease / improvement in Kd over eIF4G^D5S” value ([2]; stronger binding) was 17 fold and the “cell viability (normalized luminescence)” value [3] was “decreases cell viability in a dose-dependent manner”. The “cell viability (normalized luminescence)” value [4] was “decreases cell viability in a dose-dependent manner”, the Bcl-XL protein levels [5] was “down-regulates” and the survivin protein levels [5] was “down-regulates”.

With CC(=O)N[C@@H](CCCCN)C(=O)N[C@@H](CCCCN)C(=O)N[C@@H](CCCNC(=N)N)C(=O)N[C@@H](Cc1ccc(O)cc1)C(=O)N[C@@H](CO)C(=O)N[C@@H](CCCNC(=N)N)C(=O)N[C@@H](CCC(=O)O)C(=O)NC(C)(C)C(=O)N[C@@H](CC(C)C)C(=O)N[C@@H](CC(C)C)C(=O)NCC(=O)NC(C)(C)C(N)=O [TIP-02, KKRYSREXLLGX] the helicity [1] was 0%, the “displacement of the FAM labeled peptide in the competition assay” value [6] was “failed to displace the FAM labeled peptide” and the “affinity / binding to eIF4E (in words)” value [2] was “greatly reduced affinity for eIF4E”. For the same molecule, the “Helicity (%)” value [7] was 0/ %.

B1: TIP-01^Tr (peptide)
peptide: Ac-KKRYSR[Aib]FLL[Aib]-NH2
SMILES: CC(=O)N[C@@H](CCCCN)C(=O)N[C@@H](CCCCN)C(=O)N[C@@H](CCCNC(=N)N)C(=O)N[C@@H](Cc1ccc(O)cc1)C(=O)N[C@@H](CO)C(=O)N[C@@H](CCCNC(=N)N)C(=O)NC(C)(C)C(=O)N[C@@H](Cc1ccccc1)C(=O)N[C@@H](CC(C)C)C(=O)N[C@@H](CC(C)C)C(=O)NC(C)(C)C(N)=O
notes: Printed KKRYSRXFLLX; TIP-01 with the C-terminal F12 removed
Molecule B1 has a Kd [8] of 12100 nM.

B2: TIP-01 (peptide)
peptide: Ac-KKRYSR[Aib]FLL[Aib]F-NH2
SMILES: CC(=O)N[C@@H](CCCCN)C(=O)N[C@@H](CCCCN)C(=O)N[C@@H](CCCNC(=N)N)C(=O)N[C@@H](Cc1ccc(O)cc1)C(=O)N[C@@H](CO)C(=O)N[C@@H](CCCNC(=N)N)C(=O)NC(C)(C)C(=O)N[C@@H](Cc1ccccc1)C(=O)N[C@@H](CC(C)C)C(=O)N[C@@H](CC(C)C)C(=O)NC(C)(C)C(=O)N[C@@H](Cc1ccccc1)C(N)=O
notes: Printed KKRYSRXFLLXF, X = AIB; also called diAIB derivative of sTIP-01
In the case of B2, the “fold decrease in Kd over eIF4G^D5S” value [9] is reported as ~2 fold, the Kd [10] is reported as 59.7 nM and the Kd [11] is reported as 52.4 nM.

B3: TIP-02 (peptide)
peptide: Ac-KKRYSRE[Aib]LLG[Aib]-NH2
SMILES: CC(=O)N[C@@H](CCCCN)C(=O)N[C@@H](CCCCN)C(=O)N[C@@H](CCCNC(=N)N)C(=O)N[C@@H](Cc1ccc(O)cc1)C(=O)N[C@@H](CO)C(=O)N[C@@H](CCCNC(=N)N)C(=O)N[C@@H](CCC(=O)O)C(=O)NC(C)(C)C(=O)N[C@@H](CC(C)C)C(=O)N[C@@H](CC(C)C)C(=O)NCC(=O)NC(C)(C)C(N)=O
notes: Printed KKRYSREXLLGX, X = AIB; also called AIB derivative of sTIP-02
B3 gave a Kd [12] of 9190 nM.

B4: sTIP-03 (peptide)
peptide: Ac-KKRYSRE[R5]LL[S5]F-NH2
modifications: staple 8-11
notes: Printed KKRYSRE*LL*F, * = staple position
With B4 the “fold improvement in Kd” value [13] was 17 fold.

B5: sTIP-01 (peptide)
peptide: Ac-KKRYSR[S5]FLL[S5]F-NH2
modifications: staple 7-11
SMILES: CC(=O)N[C@@H](CCCCN)C(=O)N[C@@H](CCCCN)C(=O)N[C@@H](CCCNC(=N)N)C(=O)N[C@@H](Cc1ccc(O)cc1)C(=O)N[C@@H](CO)C(=O)N[C@@H](CCCNC(=N)N)C(=O)N[C@@]1(C)CCCC=CCCC[C@@](C)(C(=O)N[C@@H](Cc2ccccc2)C(N)=O)NC(=O)[C@H](CC(C)C)NC(=O)[C@H](CC(C)C)NC(=O)[C@H](Cc2ccccc2)NC1=O
notes: Printed KKRYSR*FLL*F, * = staple position
In the case of B5, the “fold increase in Kd over eIF4G^D5S” value [9] is reported as ~4.5 fold and the Kd [11] is reported as 558 nM.
